Laboratory results as given in PMC6901265 (2019).

What was measured:
[1] = target: T1, tyrosinase peptide on HLA-A*02:01 (human); assay: activation reporter or marker
T1 peptide: YMDGTMSQV

[2] = target: T2, EBV BRLF1 peptide on HLA-A*02:01 (human); assay: multimer staining
T2 peptide: YVLDHLIVV

B1: WT TCR AV8.1-CAVKDTDKLIF-AJ34 BV24.1-CATSDWDDSTGELFF-BJ2.2 (TCR)
alpha AV8.1 AJ34 CDR3: CAVKDTDKLIF
beta BV24.1 BJ2.2 CDR3: CATSDWDDSTGELFF
[1]
  binding result: no recognition
[2]
  binding result: recognises
